According to the Human Domainome abundance scans (Beltran et al. 2025):
± gives the uncertainty stated by the source.

B1: Formin-binding protein 4, residues 200 to 261; numbered along this chain, Q8N3X1 (parent)
chain: SGWQYDTQCSLAGVGIEMGDWQEVWDENTGCYYYWNTQTNEVTWELPQYLATQVQGLQHYQP

Variants of: B1
Test: abundance fitness (aPCA) (normalised: wild type 0, dead -1); higher = more abundant; growth selection in yeast, the domain comes from the species named
Conditions: Homo sapiens

Abundance fitness: each site, then its substitutions
H59: Y -0.296 ± 0.08; L -0.083 ± 0.052; T 0.147 ± 0.07; F -0.062 ± 0.084; P -0.115 ± 0.077; R -0.125 ± 0.062; M 0.082 ± 0.067; Q 0.083 ± 0.084; I 0.045 ± 0.097; N 0.033 ± 0.12; S -0.029 ± 0.06; K 0.188 ± 0.078; E 0.137 ± 0.079; G -0.017 ± 0.076; A 0.008 ± 0.073
L46: H -0.626 ± 0.35; M -0.224 ± 0.088; K -0.631 ± 0.12; V -0.303 ± 0.074; T -0.229 ± 0.091; W -0.493 ± 0.1; G -0.787 ± 0.11; C -0.309 ± 0.15; D -1.08 ± 0.34; Q -0.264 ± 0.14; N -0.625 ± 0.4; A -0.461 ± 0.092; E -0.525 ± 0.12; P -0.454 ± 0.12; R -0.467 ± 0.085; F -0.46 ± 0.17; S -0.779 ± 0.12; I -0.245 ± 0.15; Y -0.059 ± 0.16
Y49: V -0.097 ± 0.067; P -0.165 ± 0.084; D -0.006 ± 0.11; T -0.007 ± 0.089; M -0.113 ± 0.084; A 0.022 ± 0.086; C -0.069 ± 0.11; I 0.081 ± 0.15; S 0.126 ± 0.065; W -0.266 ± 0.093; H 0.118 ± 0.12; E 0.09 ± 0.08; F 0.004 ± 0.097; R -0.527 ± 0.088; N -0.162 ± 0.12; K -0.181 ± 0.12; L -0.126 ± 0.062
T52: I 0.029 ± 0.12; V -0.011 ± 0.067; D 0.301 ± 0.11; W -0.295 ± 0.097; R 0.034 ± 0.062; Y -0.248 ± 0.13; Q -0.202 ± 0.091; M -0.218 ± 0.11; S 0.008 ± 0.067; N -0.028 ± 0.15; K 0.335 ± 0.11; A 0.085 ± 0.071; P -0.486 ± 0.12; L -0.064 ± 0.057; G 0.038 ± 0.074
G56: S -0.031 ± 0.06; E 0.224 ± 0.086; F -0.464 ± 0.12; H -0.186 ± 0.17; I -0.425 ± 0.13; L -0.209 ± 0.058; D 0.177 ± 0.091; R 0.004 ± 0.066; C -0.255 ± 0.13; A -0.018 ± 0.078; P -0.178 ± 0.089; V -0.219 ± 0.078; W -0.16 ± 0.11; N 0.051 ± 0.12; Y -0.401 ± 0.15; M -0.367 ± 0.11; Q 0.076 ± 0.09; T 0.015 ± 0.088
E45: N -0.282 ± 0.14; K -0.069 ± 0.15; G -0.321 ± 0.082; D -0.149 ± 0.12; L -0.21 ± 0.069; I -0.089 ± 0.13; F -0.398 ± 0.14; T -0.076 ± 0.12; Y -0.484 ± 0.16; A -0.213 ± 0.095; R -0.165 ± 0.074; M -0.325 ± 0.14; P -0.552 ± 0.15; H -0.338 ± 0.16; W -0.598 ± 0.13; Q 0.05 ± 0.16; V -0.294 ± 0.084
Q61: M -0.16 ± 0.093; W -0.423 ± 0.1; P -0.201 ± 0.1; N -0.108 ± 0.15; H -0.266 ± 0.12; T 0.263 ± 0.086; R -0.101 ± 0.065; K -0.046 ± 0.093; L -0.132 ± 0.054; G -0.018 ± 0.069; I -0.299 ± 0.12; S -0.083 ± 0.069; C -0.203 ± 0.1; Y -0.287 ± 0.14; A 0.115 ± 0.064; F -0.263 ± 0.1; D -0.034 ± 0.1; E 0.065 ± 0.08
A51: Y -0.124 ± 0.16; E -0.3 ± 0.1; T -0.306 ± 0.13; G -0.346 ± 0.072; P -0.752 ± 0.16; D -0.388 ± 0.12; W -0.175 ± 0.091; V -0.237 ± 0.097; M -0.245 ± 0.14; K -0.025 ± 0.12; N -0.237 ± 0.33; C -0.145 ± 0.11; R -0.087 ± 0.065; L -0.323 ± 0.083; I -0.703 ± 0.19; Q -0.519 ± 0.13; S -0.178 ± 0.078; H -0.308 ± 0.28
Q48: E -0.024 ± 0.11; P 0.319 ± 0.079; R -0.061 ± 0.063; F -0.293 ± 0.16; T 0.053 ± 0.09; M 0.085 ± 0.091; G -0.007 ± 0.059; A -0.039 ± 0.082; S -0.038 ± 0.068; D 0.02 ± 0.16; K 0.129 ± 0.1; L 0.043 ± 0.062; Y 0.23 ± 0.13; N -0.059 ± 0.17; V -0.127 ± 0.072; W -0.417 ± 0.093; H -0.133 ± 0.15; I -0.262 ± 0.15; C -0.147 ± 0.092
P62: A 0.124 ± 0.11; F -0.103 ± 0.26; C -0.006 ± 0.2; E -0.469 ± 0.42
L57: C -0.305 ± 0.12; R -0.029 ± 0.056; E -0.093 ± 0.087; M -0.159 ± 0.086; W -0.349 ± 0.078; Q 0.047 ± 0.078; H -0.084 ± 0.1
